Assay results from paper PMC4703834.

Target: Δ4-DgkA (thermostable mutant of Escherichia coli diacylglycerol kinase) (Escherichia coli) (UniProt P0ABN1)
Assay: crystal structure; in meso (lipid cubic phase) crystals of Δ4-DgkA in 9.9 MAG at 4 °C, soaked with zinc-ACP (ternary complex, 2.7 Å) or without nucleotide; synchrotron data at 100 K

“Δ4-DgkA (thermostable mutant of Escherichia coli diacylglycerol kinase) (from UniProt P0ABN1 2-122) (enzyme)” was tested, and the stoichiometry N was 3.
